Biological target: the molecule itself
Assay: SEC-MALS; 800 micrograms of purified rBCAS0292 on S75 16/60 in 50 mM Tris-HCl, 150 mM NaCl, 5% glycerol, pH 7.5; DAWN MALS and Optilab rEX; reducing and oxidizing conditions

B1: recombinant BCAS0292 (Burkholderia negatively surface-charged regulatory protein 1), His-tagged (natural protein, Burkholderia cenocepacia, UniProt B4EQ58 1-179, looked up)
chain: MSGVRCDGLAIVDAVTLLSAYPDASRDADAPTVIDGRHIYVLRPGDAGQVGHNDNRLFAGLSPGDQLHLRETALALRAEVTVLFIRFALKDAGIVAPIEAEIRDAATPVPDGDDLLHPSCRPMKDHFWRSEVLAPGITTCTADFAVLDRDGAVSGYFRWETAIEIAGSRPDTKQPGVEP
notes: BCAS0292 protein (Bnr1), PixA family, Burkholderia cenocepacia; calculated molecular weight 19.2 kDa; no cleavage of the tag is told; also called rBCAS0292; rBnr1; source: E. coli BL21 Star (DE3), purified (lysis in 6 M guanidine-HCl, HisPur Ni-NTA, SEC)
  stoichiometry N: 2

Source: article PMC9060813, “Protein with negative surface charge distribution, Bnr1, shows characteristics of a DNA‐mimic protein and may be involved in the adaptation of Burkholderia cenocepacia” (MicrobiologyOpen, 2022)
